Experimental findings from the DeepSol protein solubility set are described below.

This data set in a line: soluble on expression in E. coli; label from the status in PepcDB or PDB records.
Regarding “MRDVDLTAAPAKKAKLDTGERIAVSGRVASVKLTNFMCHANLQIDFKTAQNNCFYIGGPNGSGKSALFAAINLGLGGRGSDNDRGNTVKSYIKDGTTQSKITITLTNAGLNAHPDFDDLISIERTINQASSTYIMKSVKVTSSDNHVERIVSRKKADVDRIVSRFSIHLSNPAFWMSQDRSRSFLANFKPANVYKLYLESTNLENIRLSYIRFADALDECFALIQLKAGEILNEQKKLKRMQEQRDLQAKLDQDRALVASFCWKLLFCKVRDYNDQIELTLKKQEAQKTLQDETKKEYAKNRAARTEVEKKIQEFRDEVEVQDAEIAEAREDLDAKKRKVLEFEEKIRECEQSIRKKTSEKKYMERTIVNAKNEVRILLEKQGNQDLTKRLTKVENDYKDISQQRENMELGGESAKLREKLDTVITDYKRKEEEKYTIQRDINQLRRKIEQDMETMRRSRATKKDAINKFGSHMAEILMEINRSKSRFQTVPKGPLGKYITLIDPKWAFTVEECIGNLANNFLCSSHLDAEILRNIFQSLRIPAQDRPTIIVAKCNGRAYTNLHEPSSDFKSIYRVLKFSDPDVHNVIIDKSNCEQFILIEDKTEAMELMGSNYPPQNAVKAYTLDGSQAYANGPNSQYRFYSGRGGHARGTFGNDQGDVDEGALARLIEDTKSEAMRLETQDLRKQDHELKVIYNERDQTKAAIDEFDRKLSNLRSQELQKERQAKDLRAELAQTANEDQVENLNESIEEMQKKIPLIEDEVKDILKNVADITADMAPVIQERKEAEHTLAEIQKETRDFASKSQKLQNELSKYDDAGEILKIRLDKVKADEGVFFHTEAKLKSERDDAMEMVENDKKNHPMPPGETDPPDLSSFPSTTEAQRKIEEMQKAVDRATVGCDTTITLECVKDFKDKLKRLKYLCRMIEDVLIELKNLHAARVKAYPSLKKFTELKVCNKFQELLAVRGHFIGGLEFDHEKETLNVNVQSSKEKDAMAGRRPEVLEVEEVDEHSYDDDSDDSTGPRRKKSKKSGQKKKRVRDLKGLSGGERSFVTAALVMSLWEVMEQPFRMMDEFDVFMDMMNRKLVMDLLVELATKKFPHNQFIFFTPQGIKELNMVDGLQVFEMNRVRD”, the “soluble on expression in E. coli” value is listed as “not soluble”.
Next, “GAMGPREVTMKKGDILTLLNSTNKDWWKVEVNDRQGFVPAAYVKKLDSGTGKELVLALYDYQESGDNAPSYSPPPPP”: “soluble”.
Next, “MEKKLLRKEVLITLKSQPQAYKSEVDCKLLEAFIKTKAYQNSCVIATYLSFDYEYNTQLLIKQALCDGKRVLVPKTYPKGKMIFVDYQKDNLRTTPFGLLEPVNDRAVEKASIDLIHVPGLIFNNKGFRIGYGAGYFDRYLSDFEGDTISTIYRCQRQDFVEEKHDVAVKEVLCLLEHHHHHH”: “soluble”; “MRVIVTEYQPAWVEQFEEEAQALKQILKENCLKVEHIGSTSVPNLAAKPIIDFLVIVEEIEKVDLLQWEFERIGYEYMGEFGLSGRRYLRKGPIKRTHHVHIYQFDNTQEILRHLAFRNYLRENPAIATTYGTLKKQLAQAHPDSIDKYMDGKDAFIKKIEKEALKKYWE”: “soluble”; “MGSDKIHHHHHHMNFQIVINNIQHIGYAELDVDLNASGIICIVGKNGVGKTTLIKAILNLKSADTFSRTASPGIFKANSSMRCTYGENSYEFSFDSDINDLNSRSPIPEELKSVIDVELPMPFGQRFNNYQNIMSADMDIRTALILGEYEVPVELISFLSDIYKTNKFNGLVEVSAKGGSYYCIPLDDDRYVREDHLSSGEFFLISLYRKIKGRSKFIVIDEIDISLDAAAQAHLIGWLRRFCTTEQVKVVFTTHSLALMRTLKDGELFYMEESEGKVSVIPSSYNYIKSVLFGFKGWDRYILTEDAMLKSLLEYVLANYCSGLFFSYQIIHVGGGSNVVDLMRQNSTEGFFSTPENVISVLDGDQAEYRYARRPNVYCIPFLSVEKAIFAEYKAGRFLPELAPDPRFDTPKNFCSAIGRDRHATEADIIKYLCDSYPTEVRRFAQTLSDFLS”: “not soluble”.
As to “MSSSSGNQNSKEHKVAVTHDLGKTNVPEHPKRVVVLELGFIDTLLDLGITPVGVADDNKAKQLINKDVLKKIDGYTSVGTRSQPSMEKIASLKPDLIIADTTRHKKVYDQLKKIAPTIALNNLNADYQDTIDASLTIAKAVGKEKEMEKKLTAHEEKLSETKQKISANSQSVLLIGNTNDTIMARDENFFTSRLLTQVGYRYAISTSGNSDSSNGGDSVNMKMTLEQLLKTDPDVIILMTGKTDDLDADGKRPIEKNVLWKKLKAVKNGHVYHVDRAVWSLRRSVDGANAILDELQKEMPAAKKLEHHHHHH”, the “soluble on expression in E. coli” value is “not soluble”.
Then “MSLNRPEADREALWKIVHDRCEFGYRRTGAYAPCTFVDEQSGTALYKADFDPYQFLLIPLARITGIEDPALRESAGRNYLYDAWAARFLVTARLNNSLPESDVVLTINPKNARTQDQLHIHISCSSPTTSAALRNVDTSEYVGWKQLPIDLGGRRFQGLAVDTKAFESRNLFRDIYLKVTADGKKMENASIAVANVAQDQFLLLLAEGTEDQPVAAETLQDHDCSITKSEGHHHHHH”, with “not soluble”; and “MIYKSIAERLRIRLNSADFTLNSLLPGEKKLAEEFAVSRMTIRKAIDLLVAWGLVVRRHGSGTYLVRKDVLHQTASLTGLVEVLKRQGKTVTSQVLIFEIMPAPPAIASQLRIQINEQIYFSRRVRFVEGKPLMLEDSYMPVKLFRNLSLQHLEGSKFEYIEQECGILIGGNYESLTPVLADRLLARQMKVAEHTPLLRITSLSYSESGEFLNYSVMFRNASEYQVEYHLRRLHPEKS”, with “soluble”; and “MPTPPGQSSSQPLPAKELGYFKKIVKSYEQKQYKAGLKFAQKILTSPGFAEHGETLAMKGLILNCMGKLQEAQDCVRRGLVSDLRSYVCWHVFGLIQKTEKKYDEAIKAYKRALMLEKDNLQILRDLSLLQIHIRDYDGYLSSKYELLQLRQTQRVSWLGYIVAHHLLKEHNLALGIMAEYIKNNTPSGYDFEFSELILYQNLIMREAGLPDVALQKLEENSTHIVDKVAYMETRANLLMDLEQPKQAENVWRALIERNPDSLEYYDMLEKCMGIKDSPKAQLAMLDGLAEKFKRAAAPRRLALYLVEGEELRRRLHEWMIPMLRKGAPSLFASLVPLYKYPQKQAVIESLITEYVKKMDDEGYGNVSLDGKDQECEPPTTALWLYVLASHHFDRCGMTQLALNYIERAIQHTPTVVENYMLKARIYKHAGDYDEAARWMEEAQSLDTADRYINGKCGKYLLRAKRSDEANKMLAKFTREGENAASHLTDMQCMWYELESGRAFRSVNKYGEALRKAHHIDFHFNTWIEDQYDFHTYCLRKMTLCSYIRLLRMCDKLRDADYYYQGAKLAIKIYLRMIDRPDDMNEHSALIKEGMTDQEIKKMKKKLKKQKELQEEEEKKKKDKEQKEEGLQRGPQIDAEALLKTEDPLGEAAKFCHNIHTFGTQKVTGYALCAEVYRRKGKVLLALKCLNEGEDREPTHPLLHVQKVKFLAYWPKCELSGLVKETADELMKCVYGAERDAAELNEKFKIEHQHDFAHRLAYAEAQYSIDSSTNLISWILKSIEDSKVNGRSLKMMIKLKDGIEYGKYGKWSKDDMEKLRKQVHSLFPLSLDFGGGVQHKSASAAPTSAETN”, with “not soluble”.
Take “MGSDKIHHHHHHMQPLLQLQGITKSFPGVKALSGAALNVYPGKVMALVGENGAGKSTMMKVLTGIYRKDAGSIHFLGQEVDFNGPKASQEAGIGIIHQELNLIPQLTIAENIFLGREFTNRFGRIDWNKMYAEADKLLKRLNLRYDSRRMVGDLSIGDQQMVEIAKVLSFESKVIIMDEPTDALTDTETASLFSVINELQSQGCGIVYISHRLKEIFEICDDITVFRDGQFIGERPVSDLEEDTLIEMMVGRKLEDQYPRSNKAPGEVRLKVQNLSGPGVDSVSFTVRKGEILGVAGLMGAGRTELMKILYGALPRTGGNVTLDGRDVVTRKPQDGLANGIVYISEDRKRDGLVLGMSVKENMSLTALRYFSHAGGRLKHAEEQLTVADFIRLFNVKTPSMEQPIGLLSGGNQQKVAIARGLMTRPNVLILDEPTRGVDVGAKKEIYQLINQFKEEGLSIILVSSEMPEVLGMSDRIIVMHEGRLSGDFPIEQATQEALMAAAVGKQYGAKQE”: the “soluble on expression in E. coli” value is reported as “not soluble”.
Regarding “ARSEKRVPMTRLRKRVAERLLEAKNSTAMLTTFNEVNMKPIMDLRKQYGEAFEKRHGIRLGFMSFYVKAVVEALKRYPEVNASIDGDDVVYHNYFDVSMAVSTPRGLVTPVLRDVDTLGMADIEKKIKELAVKGRDGKLTVEDLTGGNFTITNGGVFGSLMSTPIINPPQSAILGMHAIKDRPMAVNGQVEILPMMYLALSYDHRLIDGRESVGFLVTIKELLEDPTRLLLDV”, the “soluble on expression in E. coli” value is reported as “soluble”.
Next, “MMLSKVLRNSPLLFRVAQPKDHERIIKFLDKHFAKEEPCSRALKISPEISRGVFTATVTRCLTTPFSTVVLQENGDLAACLLASVWNRTDPLENADFDDTGLPENFKLFIQFLNKAHLNFWKIAPPNVNSIIHREIGSVAPQFTRLGIATKMVTTNMTKRNLKKYNIGGVLSETTSLANQIVLEKAGFKCLKELPYSTIVDSKGNQVLKLDDGTTSLCLNFKPIEEYENLPE”: “not soluble”.
As for “MKELDKIDFRILKILQQNARIPMTELAEKVGLSTTPVTERVRRLEREHYISGYHAHLNPHLLGKPLLVFVELKLQSKSGNIFEDFKKEVLKIPQIMECHLVSGEYDYLIKVRLPDMSAYRDMLGNILLQLPAASESRSYVVMEEVKENPVLDLD”, the “soluble on expression in E. coli” value was “soluble”.
Next, “MKKMNHVLQVLMLSASLVASPFTYANEEKGLEIAQERKARDEGWGDSIATMEMILKNAQGESSTRLMRLKSLEVEGDGDKGLTIFDQPRDVTGTAFLNHSHTIGADDQWLYLPALKRVKRISSRNKSGPFMGSEFAYEDLSSFEIEKYRFNHLKDEKFNGQDVFVLEQIPTDKNSGYTKQVVWLDKAHYRPLKVEFYDRKGALLKTLTFANYKQYLDKYWRAHTMAMTNHQTGKSTELNTSDLRFQTGLEENDFNKNVLKRVK”: “not soluble”; “MSVKSDSRHLYLRVIDHIKEKIKDGAYKERQKLPSEFDLAKELGVSRATLREALRILEEENVVIRRHGVGTFVNAKPLFSSGIEQLSSITDMISSVGKTPGTIFLSSSTTSLTEEEKEKFNSEDGFNAVMIERVRTADGEPVVYCIDKLAKEILPDLSGYNEESLLTVIHNNTHKRITYAVAHIEPIGYHPKISPILECEPETALLVLKQMHYDQNDEPILYSINYFRADKFSFHVLRKRM”: “not soluble”; “MAHHHHHHMDEGDHSDKESVGEEIVGEDHVEDKDGKPKRSYEKMVEEIKIENSKSFISKISEPLLKKKYFKYFLKILDYAYYAKVTAMQIIKTNEQIEERKKKILKNKFVVIGITQVVKAIRKGVDGIVFLAIDVFPIDIICHMPVFCEEHKIPYTFVTTKNKLARLCKLKRSVTCLFLPKPNIDIDKFEATVNEFSSKKKISNYAKLYEKMLSGVKKNHPFFQS”: “soluble”.
Take “MILAVLQARMGSSRLPGKSMATLQGEPMIVRQLERLRGARCLSKIIVATSQDPADDALAGFLVSRGNTVHRGAGADILARIARCADAISAVSHVVRLKGDAPFMDPGVVDDAVRMALASGADYTSNRVHRTYPAGLEVEVIKAGVLRQAAAEERDPTARISPTAAIRNQPERWRQAHLRAARDCSRLDWRVKTAADLAFARSVYDALHPGDPDFRMGDVLDLLENRQDIARFAALEHHHHHH”: the “soluble on expression in E. coli” value is “not soluble”.
Next, “ATPSRKQRVSTLWISDVHLGTRDCQAEHLSAFLKRYQADKVYLVGDIIDGWKLRGGMYWPQAHTNVIRRLLTMSKRGTEVIYVTGNHDEFLRRYSKLVLGNIQLVDEAEHVTAEGRRLLVIHGDQFDVITRYHRWLAFLGDSAYEFTLTLNRWLNHWRAKYGYGYWSLSAYLKHKVKSAVNFISDFEEAIAHECVKRGLDGVVCGHIHHAEIRQVGGVEYLNCGDWVESCTALIEHLDGTIELFRLADAHLKASQPV”: “not soluble”.
